The values that follow come from patent US20040266686A1 (Regeneron, published 2004).

Test [1] addresses T1, human VEGF165 (human, UniProt P15692-4 27-191).
T1 construct: also called Human recombinant VEGF165
As to the kind of experiment: size exclusion chromatography with on-line light scattering.
Method: (a) Size Exclusion Chromatography (SEC) with On-Line Light Scattering. Size exclusion chromatography column with a MiniDawn on-line light scattering detector (Wyatt Technology, Santa Barbara, Calif.) and refractive index (R1) detectors (Shimadzu, Kyoto, Japan) was used to determine the molecular weight (MW) of the receptor-ligand complex. Samples were injected onto a Superose 12 HR 10/30 column (Pharmacia) equilibrated in PBS buffer and eluted with the same buffer at flow rate 0.5 ml/min. at room temperature. […] MW was calculated from LS and R1 signals. The same procedure was used to determine MW of the individual components of the receptor-ligand complex.

Test [2] has as its target T1, human VEGF165. Description: cell-based or functional assay.
The target of test [3] is T1, human VEGF165. Description: size exclusion chromatography under dissociative conditions (6M GuHCl), standard curves. The method, then:
(a) Size Exclusion Chromatography (SEC) under native conditions. […] The sample was eluted with the same buffer at flow rate 40 μl/min. at room temperature. […] Fractions eluted between 1.1 and 1.2 ml were combined and guanidinium hydrochloride (GuHCl) was added to a final concentration 4.5M to dissociate the complex.
(b) Size Exclusion Chromatography (SEC) under dissociative conditions. To separate the components of the receptor-ligand complex and to determine their molar ratio, 50 μl of dissociated complex as described supra was loaded onto a Superose 12 PC 3.2/30 equilibrated in 6M GuHCl and eluted with the same solution at a flow rate 40 μl/min. at room temperature.
The stoichiometry of the receptor-ligand complex was determined from the peak area or the peak height of the components. […] To obtain a standard curve, four different concentrations (0.04 mg/ml−0.3 mg/ml) of either component were injected onto a Pharmacia Superose 12 PC 3.2/30 column equilibrated in 6M guanidinium chloride and eluted with the same solution at flow rate 40 μl/min. at room temperature. The standard curve was obtained by plotting peak area or peak height vs protein concentration.

Test [4] addresses T1, human VEGF165. As to the kind of experiment: size exclusion chromatography (Superose 6), complex purified, dissociated in 6M guanidine hydrochloride, components quantified. How it is done:
(b) Size Exclusion Chromatography. […] The receptor-ligand complex was then incubated in a buffer containing 6M guanidine hydrochloride in order to dissociate it into its component proteins.

T1 sequence (P15692 other isoform, or with tags, fused parts or gaps limits assumed): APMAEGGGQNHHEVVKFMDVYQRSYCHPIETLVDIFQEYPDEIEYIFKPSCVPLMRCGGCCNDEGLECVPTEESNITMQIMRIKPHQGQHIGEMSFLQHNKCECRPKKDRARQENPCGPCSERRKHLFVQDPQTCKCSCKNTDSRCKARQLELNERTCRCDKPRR

B1: Flt1D2.Flk1D3.Fc?C1(a) (Fc fusion, human)
chain: GRPFVEMYSEIPEIIHMTEGRELVIPCRVTSPNITVTLKKFPLDTLIPDGKRIIWDSRKGFIISNATYKEIGLLTCEATVNGHLYKTNYLTHRQTNTIIDVVLSPSHGIELSVGEKLVLNCTARTELNVGIDFNWEYPSSKHQHKKLVNRDLKTQSGSEMKKFLSTLTIDGVTRSDQGLYTCAASSGLMTKKNSTFVRVHEKGPG
modifications: N-linked glycosylation: complete at Asn33, Asn193, Asn282; partial at Asn65 and Asn120 (peptide mapping numbering)
notes: domain: Ig domain 2;domain: Ig domain 3; Made in CHO cells, transiently or stably; also called R1R2; not shown: Fc?C1(a) portion
In the case of B1, in the test with human VEGF165 [1], the “stoichiometry of the complex” value is 1 receptor:VEGF165. Also, the “half maximal dose, VEGF165-induced cell proliferation (MG87 cells, MTS)” value (“half maximal dose” below) with human VEGF165 [2] stood at 0.8 nM. Moreover, in the test with human VEGF165 [3], the “molar ratio of VEGF165:receptor (from the peak area)” value was determined as 1.16 mol/mol and the “molar ratio of VEGF165:receptor (from the peak height)” value is 1.1 mol/mol. In addition, the “ratio of VEGF165 to receptor in the complex” value with human VEGF165 [4] was 1 VEGF165:receptor.

B2: Flt1D2.VEGFR3D3.Fc?C1(a) (Fc fusion, not shown: a dimerising Fc or GST)
chain: GRPFVEMYSEIPEIIHMTEGRELVIPCRVTSPNITVTLKKFPLDTLIPDGKRIIWDSRKGFIISNATYKEIGLLTCEATVNGHLYKTNYLTHRQTNTIIDIQLLPRKSLELLVGEKLVLNCTVWAEFNSGVTFDWDYPGKQAERGKWVPERRSQQTHTELSSILTIHNVSQHDLGSYVCKANNGIQRFRESTEVIVHENGPG
Consider B2, for which, in the test with human VEGF165 [2], the “half maximal dose” value was 2 nM.

B3: Flt1(1-3)-Fc (Fc fusion, human, UniProt P17948 27-331, looked up, not shown: a dimerising Fc or GST)
chain: SKLKDPELSLKGTQHIMQAGQTLHLQCRGEAAHKWSLPEMVSKESERLSITKSACGRNGKQFCSTLTLNTAQANHTGFYSCKYLAVPTSKKKETESAIYIFISDTGRPFVEMYSEIPEIIHMTEGRELVIPCRVTSPNITVTLKKFPLDTLIPDGKRIIWDSRKGFIISNATYKEIGLLTCEATVNGHLYKTNYLTHRQTNTIIDVQISTPRPVKLLRGHTLVLNCTATTPLNTRVQMTWSYPDEKNKRASVRRRIDQSNSHANIFYSVLTIDKMQNKDKGLYTCRVRSGPSFKSVNTSVHIYDK
On to B3, for which, in the test with human VEGF165 [2], the “half maximal dose” value turned out to be 2 nM.
